We go through two molecules from publication PMC9398908, “GLP-1-mediated delivery of tesaglitazar improves obesity and glucose metabolism in male mice” (Nature Metabolism, 2022).

A short description of data set [1]: in vivo. Also noted: species or system C57BL6J mice. Conditions: mouse. The procedure: (§1) Plasma concentration-time profiles were analysed in C57BL6J mice and Sprague Dawley rats by a non-compartmental method using sparse sampling in Pharsight Phoenix WinNonLin v.6.4 software, and the resulting terminal half-life (T1/2), maximum plasma concentration (Cmax), time for maximum plasma concentration (Tmax), and AUC from zero to last valid measurable concentration-time point (AUC0-t) were determined.

The nature of data set [2]: in vivo. Also noted: species or system Sprague Dawley rats. As to conditions: Sprague Dawley, rat. The procedure: as §1
The test system of data set [3] is C57BL/6J DIO mice. In words: Urinary albumin:creatinine ratio in DIO mice (Extended Data Fig. 2g). Type of data set: in vivo, mouse. Conditions: 14-day treatment, 50 nmol kg−1 per day, in words. The source says:
Frozen urine samples from heterozygous GIPR^dn mice in a CD1 background (n = 3) served as positive controls. […] For each treatment group, uACR was computed as a ratio of urinary albumin (mg ml^−1) to urinary creatinine (mg ml^−1).

Setting [4] is: C57BL6J, 100 nmol/kg, concentration (PK, Extended Data Fig. 1c).
The mark [5] stands for this setting: 100 nmol/kg, concentration (PK, Extended Data Fig. 1c).
The mark [6] stands for this setting: male, 100 nmol/kg, concentration (PK, Extended Data Fig. 1c).
The mark [7] stands for this setting: male, C57BL6/J, 100 nmol/kg, concentration (PK, Extended Data Fig. 1c).

A word on the AUC(0-t): it is exposure summed from dosing to a finite time, without extrapolation to infinity. Low values mean low exposure, high ones high exposure. As a reminder, the Cmax is the highest concentration seen after dosing. As a reminder, the half-life is the time needed for the level to fall by half in the phase considered. In data set [1] (setting [4]), `CC[C@H](C)[C@H](NC(=O)[C@H](Cc1ccccc1)NC(=O)[C@H](CCC(=O)O)NC(=O)[C@H](CCCCN)NC(=O)[C@H](C)NC(=O)[C@H](C)NC(=O)[C@H](CCC(N)=O)NC(=O)[C@H](CCC(=O)O)NC(=O)[C@H](CCC(=O)O)NC(=O)[C@H](CC(C)C)NC(=O)[C@H](Cc1ccc(O)cc1)NC(=O)[C@H](CO)NC(=O)[C@H](CO)NC(=O)[C@@H](NC(=O)[C@H](CC(=O)O)NC(=O)[C@H](CO)NC(=O)[C@@H](NC(=O)[C@H](Cc1ccccc1)NC(=O)[C@@H](NC(=O)CNC(=O)[C@H](CCC(=O)O)NC(=O)C(C)(C)NC(=O)[C@@H](N)Cc1c[nH]cn1)[C@@H](C)O)[C@@H](C)O)C(C)C)C(=O)N[C@@H](C)C(=O)N[C@@H](Cc1c[nH]c2ccccc12)C(=O)N[C@@H](CC(C)C)C(=O)N[C@H](C(=O)N[C@@H](CCCCN)C(=O)NCC(=O)NCC(=O)N1CCC[C@H]1C(=O)N[C@@H](CO)C(=O)N[C@@H](CO)C(=O)NCC(=O)N[C@@H](C)C(=O)N1CCC[C@H]1C(=O)N1CCC[C@H]1C(=O)N1CCC[C@H]1C(=O)N[C@@H](CO)C(=O)N[C@@H](CCCCN)C(N)=O)C(C)C` [GLP-1RA, GLP-1 Aib2 Glu16 CEX Lys40] came in with a level at time molar at 0.5 h of 435 nM and a level at time molar at 1 h of 219 nM. In data set [1] (male, C57BL6/J), the AUC(0-t) was 0.399 µM·h and the highest level (Cmax) was 361 nM. Moreover, in data set [2] (setting [5]), the level at time molar at 4 h came out at 10.7 nM. In data set [2] (male), this molecule gave an AUC(0-t) of 0.131 µM·h, a Cmax of 41.3 nM and a half-life of 128 min. In data set [2] (setting [6]), this molecule registered a level at time molar at 0.5 h of 30.7 nM, a level at time molar at 2 h of 26.1 nM and a level at time molar at 4 h of 15.8 nM.

As to `CCO[C@@H](Cc1ccc(OCCc2ccc(OS(C)(=O)=O)cc2)cc1)C(=O)N[C@@H](CCC(=O)NCCCC[C@H](NC(=O)[C@H](CO)NC(=O)[C@@H]1CCCN1C(=O)[C@@H]1CCCN1C(=O)[C@@H]1CCCN1C(=O)[C@H](C)NC(=O)CNC(=O)[C@H](CO)NC(=O)[C@H](CO)NC(=O)[C@@H]1CCCN1C(=O)CNC(=O)CNC(=O)[C@H](CCCCN)NC(=O)[C@@H](NC(=O)[C@H](CC(C)C)NC(=O)[C@H](Cc1c[nH]c2ccccc12)NC(=O)[C@H](C)NC(=O)[C@@H](NC(=O)[C@H](Cc1ccccc1)NC(=O)[C@H](CCC(=O)O)NC(=O)[C@H](CCCCN)NC(=O)[C@H](C)NC(=O)[C@H](C)NC(=O)[C@H](CCC(N)=O)NC(=O)[C@H](CCC(=O)O)NC(=O)[C@H](CCC(=O)O)NC(=O)[C@H](CC(C)C)NC(=O)[C@H](Cc1ccc(O)cc1)NC(=O)[C@H](CO)NC(=O)[C@H](CO)NC(=O)[C@@H](NC(=O)[C@H](CC(=O)O)NC(=O)[C@H](CO)NC(=O)[C@@H](NC(=O)[C@H](Cc1ccccc1)NC(=O)[C@@H](NC(=O)CNC(=O)[C@H](CCC(=O)O)NC(=O)C(C)(C)NC(=O)[C@@H](N)Cc1c[nH]cn1)[C@@H](C)O)[C@@H](C)O)C(C)C)[C@@H](C)CC)C(C)C)C(N)=O)C(=O)O` [GLP-1RA/tesaglitazar, GLP-1 Aib2 Glu16 CEX Lys40/tesaglitazar conjugate], in data set [1] (setting [4]), the level at time molar at 10 min turned out to be 246 nM, the level at time molar at 0.5 h amounted to 314 nM and the level at time molar at 1 h worked out at 131 nM. In data set [1] (male, C57BL6/J), this molecule showed an AUC(0-t) of 0.505 µM·h, a maximum concentration (Cmax) of 278 nM and a half-life of 66 min. In data set [1] (setting [7]), this molecule returned a level at time molar at 2 h of 87.6 nM and a level at time molar at 4 h of 21.6 nM. Besides, in data set [2] (setting [5]), the level at time molar at 4 h came to 20.5 nM. Further, in data set [2] (male), the AUC(0-t) was found to be 0.174 µM·h, the Cmax stood at 37.5 nM and the half-life was 152 min. In data set [2] (setting [6]), this molecule registered a level at time molar at 10 min of 41.7 nM, a level at time molar at 1 h of 40.3 nM, a level at time molar at 2 h of 26.8 nM and a level at time molar at 4 h of 21.2 nM. For the same molecule, the “urinary albumin:creatinine ratio” value in data set [3] is given as “likewise not changed”.
